Experimental data reported in patent US9096835B2, “DNA polymerase” (Medical Research Council, priority 2003, dated 2015).

How the values were obtained:
[1] = system: 215 bp fragment from the cytochrome B gene in the mitochondrial genome; experiment: Ancient DNA PCR, cave hyena samples; type: biochemical, cave hyena (Crocuta spelaea); conditions: on two separate occasions
Description: FIG. 12. Several samples of cave hyena (Crocuta spelaea) were extracted and analysed. The seven samples were from Teufelslucke cave (Austria, 40 000 years old), Aufhausener Höhle (Germany, no date determined (2 samples)); Irpfelhöhle (Germany, no date determined); Kiskevelyi ([…] 48 500 years old); Miskolc III (Hungary, 44 000 years old); Mala ladnica (Slovakia, no date determined). The target was a 215 bp fragment from the cytochrome B gene in the mitochondrial genome. The amplification was only successful in the presence of sspDNA.
Several samples of cave hyena (Crocuta spelaea) were extracted and analysed. […] These samples were chosen to test the efficacy of the expanded substrate spectrum polymerases.
Therefore, M1 was blended with a commercial preparation of Taq (SuperTaq (HT biotechnology Ltd)) in a ratio of 1 unit to 10 and compared to Taq in the absence of M1. It was hoped that if M1 could bypass the blocking lesions, then the wild type Taq would amplify the resulting translesion synthesis product.

[2] = system: template containing 5-Nitroindole; experiment: Primer extension opposite 5-nitroindole; type: biochemical; conditions: for ability to replicate 5NI: clones from five rounds of selection
Protocol: 50 pmol of ^32P-labelled primer and 100 pmol of template in a volume of 44 μl were annealed in 1× Taq buffer. 4D11 or 5D4 polymerase as cell lysate (6 μl) was added and reactions were incubated at 50° C. for 15 minutes followed by addition of one dNTP (1 μl in total volume of 50 μl, final dNTP concentration 40 μM). 8 μl samples were taken at various time points and added to 8 μl stop solution (7M urea, 100 mM EDTA containing xylene cyanol F). At the end of the time course the remaining 3 dNTPs were added (final concentration each dNTP 40 μM) and reactions incubated at 50° C. for a further 30 minutes. Reaction samples were electrophoretically separated using 20% polyacrylamide gels at 25 W for 4 hours. The resultant gels were dried and scanned using a phosphorimager (Molecular Dynamics). Data was processed using the program ImageQuant (Molecular Dynamics).

[3] = Incorporation and extension of 5-nitroindole-5′-triphosphate; type: biochemical; conditions: 50° C., identical conditions as 4D11 and 5D4; data not shown
Protocol: 50 pmol of ^32P-labelled primer and 100 pmol of template in a volume of 44 μl were annealed in 1× Taq buffer. 4D11 or 5D4 polymerase as cell lysate (6 μl) was added and reactions were incubated at 50° C. for 15 minutes followed by addition of d5NITP (1 μl in total volume of 50 µL final dNTP concentration 40 μM). 8 μl samples were taken at various time points and added to 8 μl stop solution (7M urea, 100 mM EDTA containing xylene cyanol F). At the end of the time course the 4 native dNTPs were added (final concentration each dNTP 40 μM) and reactions incubated at 50° C. for a further 30 minutes.

SuperTaq: commercial preparation of Taq (HT biotechnology Ltd)
amplification of previously un-amplifiable cave hyena DNA [1]: did not

B1: 4D11: round 4 clone selected for replication of 5NI; SEQ ID NO: 107 (protein)
chain: MAMLPLFEPKGRVLLVDGHHLAYRTFFALKGLTTSRGEPVQAVYGFAKSLLKALKEDGYKAVFVVFDAKAPSFRHEAYEAYKAGRAPTPEDFPRQLALIKELVDLLGFTRLEVQGYEADDVLATLAKKAEKEGYEVRILTADRDLYQLVSDRVAVLHPEGHLITPEWLWEKYGLRPEQWVDFRALVGDPSDNLPGIKGIGEKTALKLLKEWGSLENLLKNLDRVKPENVREKIKAHLEDLRLSLELSRVRTDLPLEVDFAKRREPDRERLRAFLERLEFGSLLHEFGLLESPKALEEAPWPPPEGAFVGFVLSRKEPMWADLLALAAAKGGRVHRAPEPYKALRDLKEARGLLAKDLSVLALREGLGLPPGDDPMLLAYLLDPSNTTPEGVARRYGGEWTEEAGERAALSERLFANLWGRLEGEERLLWLYREVERPLSAVLAHMEATGVRLDVAYLRALSLEVAEEIARLEAEVFRLAGHPFNLNSRDQLERVLFDELGLPAIGKTEKTGKRSTSAAVLEALREAHPIVEKILQYRELTKLKSTYIDPLPDLIHPRTGRLHTRFNQTATATGRLSSSDPNLQNIPVRTPLGQRIRRAFIAEGGWLLVVLDYSQMELRVLAHLSGDENLIRVFQEGRDIHTETASWMFGVPREAVDPLMRRAAKTINFGVLYGMSAHRLSQELAIPYEEAQAFIERYFQSFPKVRAWIEKTLEEGRRRGYVETLFGRRRYVPDLEARVKSVREAAERMAFNMPVQGTAADLMKLAMVKLFPRLEETGARMLLQVHDELVLEAPKERAEAVARLAKEVMEGVYPLAVPLEVEVGIGEDWLSAKE
modifications: Mutant Taq polymerase
ability to replicate 5NI [2]: greatly increased ability to replicate 5NI

B2: Tth: Thermus thermophilus (Tth) wild-type polymerase (protein, UniProt P52028 1-834, looked up)
DNA polymerase I, thermostable: MEAMLPLFEPKGRVLLVDGHHLAYRTFFALKGLTTSRGEPVQAVYGFAKSLLKALKEDGYKAVFVVFDAKAPSFRHEAYEAYKAGRAPTPEDFPRQLALIKELVDLLGFTRLEVPGYEADDVLATLAKKAEKEGYEVRILTADRDLYQLVSDRVAVLHPEGHLITPEWLWEKYGLRPEQWVDFRALVGDPSDNLPGVKGIGEKTALKLLKEWGSLENLLKNLDRVKPENVREKIKAHLEDLRLSLELSRVRTDLPLEVDLAQGREPDREGLRAFLERLEFGSLLHEFGLLEAPAPLEEAPWPPPEGAFVGFVLSRPEPMWAELKALAACRDGRVHRAADPLAGLKDLKEVRGLLAKDLAVLASREGLDLVPGDDPMLLAYLLDPSNTTPEGVARRYGGEWTEDAAHRALLSERLHRNLLKRLEGEEKLLWLYHEVEKPLSRVLAHMEATGVRLDVAYLQALSLELAEEIRRLEEEVFRLAGHPFNLNSRDQLERVLFDELRLPALGKTQKTGKRSTSAAVLEALREAHPIVEKILQHRELTKLKNTYVDPLPSLVHPRTGRLHTRFNQTATATGRLSSSDPNLQNIPVRTPLGQRIRRAFVAEAGWALVALDYSQIELRVLAHLSGDENLIRVFQEGKDIHTQTASWMFGVPPEAVDPLMRRAAKTVNFGVLYGMSAHRLSQELAIPYEEAVAFIERYFQSFPKVRAWIEKTLEEGRKRGYVETLFGRRRYVPDLNARVKSVREAAERMAFNMPVQGTAADLMKLAMVKLFPRLREMGARMLLQVHDELLLEAPQARAEEVAALAKEAMEKAYPLAVPLEVEVGMGEDWLSAKG
extension opposite 5-nitroindole ([2]; 50° C., cell lysate, identical conditions as 4D11 and 5D4, data not shown): almost undetectable extension reactions
incorporation and extension of d5NITP [3]: almost undetectable extension reactions

B3: 5D4: round 5 clone selected for replication of 5NI; SEQ ID NO: 109 (protein)
chain: MAMLPLFEPKGRVLLVDGHHLAYRTFFALKGLTTSRGEPVQAVYGFAKSLLKALKEDGYKAIFVVFDAKAPSFRHEAHEAYKAGRAPSPEDFPRQLALIKELVDLLGFTRLEVQGYEADDVLATLAKKAEKEGYEVRILTADRDLYQLVSDRVAVLHPEGHLITPEWLWEKYGLRPEQWVDFRALVGDPSDNLPGVKGIGEKTALKLLKEWGSLENLLKNLDRLKPAIREKILAHMDDLKLSWDLAKVRTDLPLEVDFAKRRESDRERLRAFLERLEFGSLLHEFGLLESPKALEEAPWPPPVGAFVGFVLSRKEPMWADLLALAAARGGRVHRAPEPYKALRDLKEARGLLAKDLSVLALREGLGLPPGDDPMLLAYLLDPSNTTPEVVARRYGGEWTEEAGERAALSERLFANLWGRLEGEGRLLWLYRGVERPLSAVLAHMEATGVRLDVAYLRALSLEVAEEIARLEAEVFRLAGHPFNLNSRDQLERVLFDELGLPAIGKTEKTGKRSTSAAVLEALREAHPIVEKILQYRELTKLKSTYIDPLPDLIHPRTGRLHTRFNQTATATGRLSSSDPNLQNIPVRTPLGQRIRRAFIAEGGWLLVVLDYSQMELRVLAHLSGDENLIRVFQEGRDIHTETASWMFGVPREAVDPLMRRAAKTINFGVLYGMSAHRLSQELAIPYEEAQAFIERYFQSFPKVRAWIEKTLEEGRKRGYVETLFGRRRYVPDLNARVKSVREAAERMAFNMPVQGTAADLTKLAMVKLFPRLEETGARMLLQVHDELVLEAPKERAEAVARLAKEVMEGVYPLAVPLEVEVGIGEDWLSAKG
modifications: Mutant Taq polymerase
ability to replicate 5NI [2]: greatly increased ability to replicate 5NI
